Values of other authors, collected in PMC4926285.

Molecular target: insulin receptor (site 1) site 1 (L1 and carboxy-terminal α-chain) (Homo sapiens) (UniProt P06213)
Sequence of UniProt P06213 (P06213 28-182): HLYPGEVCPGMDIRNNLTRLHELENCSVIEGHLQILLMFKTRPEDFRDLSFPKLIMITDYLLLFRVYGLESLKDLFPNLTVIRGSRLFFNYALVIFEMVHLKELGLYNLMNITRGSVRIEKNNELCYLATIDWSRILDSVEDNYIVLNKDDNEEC

Sequence of insulin (P01308 90-110): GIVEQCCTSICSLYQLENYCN

- Kd: 6.4 nM
Substance: insulin (from UniProt P01308)
